According to the supplement of paper PMC9112550, “Optimization of the antimicrobial peptide Bac7 by deep mutational scanning” (BMC Biology, 2022):

Each sequence was assayed on Escherichia coli TOP10 (assay: shrunken log2 fold change of peptide-encoding DNA abundance (4.5 h post-induction vs induction); higher = less antimicrobial activity (less host growth inhibition)). Details: time post-induction: 4.5 h; library: site-saturation at positions 5, 18, 19, 20.
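Note: peptides expressed intracellularly from a pBAD plasmid library in pooled LB shake-flask culture, induced with 0.3% L-arabinose, DNA abundance read by NGS, three biological replicates, DESeq2 with apeglm shrinkage.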

In order of falling “shrunken log2 fold change” value:
1. RRIRGRPPRLPRPRPRPYPIPRP  3.7
2. RRIRDRPPRLPRPRPRPREEPRP  1.27
3. RRIRMRPPRLPRPRPRPRPQPRP  1.13
4. RRIRWRPPRLPRPRPRPPANPRP  0.629
5. RRIRKRPPRLPRPRPRPRRHPRP  0.523
6. RRIRWRPPRLPRPRPRPCMRPRP  0.506
7. RRIRERPPRLPRPRPRPPGEPRP  0.439
8. RRIRVRPPRLPRPRPRPLQAPRP  0.432
9. RRIRTRPPRLPRPRPRPAGDPRP  0.258
10. RRIRPRPPRLPRPRPRPRFCPRP  0.225
11. RRIRRRPPRLPRPRPRPAKHPRP  0.219
12. RRIRWRPPRLPRPRPRPPRQPRP  0.209
13. RRIRVRPPRLPRPRPRPKPDPRP  0.206
14. RRIRGRPPRLPRPRPRPRMCPRP  0.197
15. RRIRARPPRLPRPRPRPWQVPRP  0.191
16. RRIRYRPPRLPRPRPRPPKIPRP  0.152
17. RRIRARPPRLPRPRPRPWSQPRP  0.149
18. RRIRRRPPRLPRPRPRPCIEPRP  0.131
19. RRIRKRPPRLPRPRPRPLNPPRP  0.129
20. RRIRQRPPRLPRPRPRPRIWPRP  0.123
21. RRIRWRPPRLPRPRPRPQIGPRP  0.0807
22. RRIRFRPPRLPRPRPRPRHDPRP  0.0736
23. RRIRARPPRLPRPRPRPNPEPRP  0.0539
24. RRIRYRPPRLPRPRPRPERDPRP  0.0217
25. RRIRARPPRLPRPRPRPGVYPRP  0.011
26. RRIRRRPPRLPRPRPRPFHNPRP  0.00548
27. RRIRWRPPRLPRPRPRPKFFPRP  0.00459
28. RRIRDRPPRLPRPRPRPDDIPRP  -0.00277
29. RRIRQRPPRLPRPRPRPLDSPRP  -0.00448
30. RRIRARPPRLPRPRPRPMVKPRP  -0.00629
31. RRIRPRPPRLPRPRPRPWAHPRP  -0.00675
32. RRIRERPPRLPRPRPRPEGLPRP  -0.00749
33. RRIRSRPPRLPRPRPRPKPEPRP  -0.01
34. RRIRNRPPRLPRPRPRPHDVPRP  -0.0113
35. RRIRPRPPRLPRPRPRPQWLPRP  -0.0256
36. RRIRWRPPRLPRPRPRPCIHPRP  -0.0458
37. RRIRDRPPRLPRPRPRPWIHPRP  -0.0487
38. RRIRPRPPRLPRPRPRPITEPRP  -0.0543
39. RRIRIRPPRLPRPRPRPFHEPRP  -0.0627
40. RRIRIRPPRLPRPRPRPVKGPRP  -0.0688
41. RRIRVRPPRLPRPRPRPPWKPRP  -0.0783
42. RRIRERPPRLPRPRPRPLTIPRP  -0.101
43. RRIRQRPPRLPRPRPRPYVVPRP  -0.102
44. RRIRWRPPRLPRPRPRPEHMPRP  -0.122
45. RRIRTRPPRLPRPRPRPATGPRP  -0.123
46. RRIRPRPPRLPRPRPRPMGHPRP  -0.145
47. RRIRYRPPRLPRPRPRPVHSPRP  -0.155
48. RRIRHRPPRLPRPRPRPVGFPRP  -0.203
49. RRIRVRPPRLPRPRPRPKCFPRP  -0.213
50. RRIRSRPPRLPRPRPRPFDKPRP  -0.232
51. RRIRERPPRLPRPRPRPPCHPRP  -0.251
52. RRIRERPPRLPRPRPRPGFHPRP  -0.277
53. RRIRLRPPRLPRPRPRPPILPRP  -0.287
54. RRIRYRPPRLPRPRPRPMFRPRP  -0.296
55. RRIRNRPPRLPRPRPRPMLFPRP  -0.301
56. RRIRNRPPRLPRPRPRPHWFPRP  -0.318
57. RRIRQRPPRLPRPRPRPTSDPRP  -0.358
58. RRIRWRPPRLPRPRPRPMTMPRP  -0.385
59. RRIRFRPPRLPRPRPRPQFSPRP  -0.401
60. RRIRNRPPRLPRPRPRPVCLPRP  -0.453
61. RRIRVRPPRLPRPRPRPNMIPRP  -0.491
62. RRIRYRPPRLPRPRPRPETIPRP  -0.495
63. RRIRFRPPRLPRPRPRPYIEPRP  -0.504
64. RRIRRRPPRLPRPRPRPYDSPRP  -0.545
65. RRIRHRPPRLPRPRPRPLFNPRP  -0.58
66. RRIRCRPPRLPRPRPRPFMKPRP  -0.696
67. RRIRHRPPRLPRPRPRPMNHPRP  -0.738
68. RRIRHRPPRLPRPRPRPLSKPRP  -0.746
69. RRIRHRPPRLPRPRPRPVFYPRP  -0.751
70. RRIRWRPPRLPRPRPRPNTCPRP  -0.777
71. RRIRIRPPRLPRPRPRPQIHPRP  -0.796
72. RRIRWRPPRLPRPRPRPVYNPRP  -0.817
73. RRIRCRPPRLPRPRPRPTIHPRP  -0.883
74. RRIRQRPPRLPRPRPRPKYIPRP  -1.11
75. RRIRCRPPRLPRPRPRPCTYPRP  -1.19
